Results reported in the supplement of paper PMC10567573.
± gives the standard deviation.

Experiment: protein stability index of a GFP-peptide fusion (GPS, HEK-293T) (PSI 1-6); higher = more stable
[1] = treatment: DMSO, c terminus: a fixed tail appended
[2] = treatment: MLN4924 1 uM, 8 h, c terminus: a fixed tail appended
[3] = treatment: DMSO, c terminus: native
[4] = treatment: MLN4924 1 uM, 8 h, c terminus: native
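Further: 24-mer peptide tiles fused after GFP, lentivirally expressed, FACS-sorted into six equal bins by GFP/DsRed ratio, decoded by Illumina sequencing, PSI is the read-weighted mean bin number.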

Row | Sequence | protein stability index [1] | protein stability index [2] | protein stability index [3] | protein stability index [4]
1 | PVLGSSSGAGHGSGSGSGPGCGSV [SPAG8] | 4.8 ± 0.36 | 4.92 ± 0.49 | – | –
2 | SQEREGLLIVKLEEDCAWSQELPP [ZNF263] | 3.72 ± 0.068 | 3.89 ± 0.18 | – | –
3 | ITNTDVDCLKACQEQIEAVLLNSL [CCND2] | 2.73 ± 0.2 | 2.86 ± 0.39 | – | –
4 | VHQRGSSTAKKEDINLSVRKLLNR [TRIP13] | 3.72 ± 0.31 | 3.87 ± 0.25 | – | –
5 | CFITLTTIGFGDYVALQTKGALQK [KCNK9] | 2.97 ± 0.63 | 2.67 ± 0.59 | – | –
6 | QGDPKGEMAATPAGFAQLTHLLMG [HDAC6] | 3.1 ± 0.16 | 3.06 ± 0.14 | – | –
7 | ELFIITQLQSMPSRELASMNLDIV [RHOBTB3] | 2.31 ± 0.85 | 3.25 ± 0.55 | – | –
8 | PESLTKPDQVAPFTFLQPLPLSPG [ATF4] | 4.21 ± 0.3 | 4.2 ± 0.12 | – | –
9 | AVLEYLYTGMFTSSPDLDDMKLII [RHOBTB2] | 2.68 ± 0.6 | 2.53 ± 0.3 | – | –
10 | NFLLFDMTTHPLTNNNIKQRLIKK [GOLPH3] | 2.62 ± 0.22 | 2.81 ± 0.25 | – | –
11 | EFEQFESTIGFKLPNHRAAKRLWK [EPB41L3] | 3.17 ± 0.39 | 3.27 ± 0.61 | – | –
12 | YAKLAAVAVFFIMLIVYVRFWWL [SEC22B] | – | – | 2.52 ± 0.081 | 2.63 ± 0.075
13 | TLDGRTPLHLAAQRGHYRVARILI [RIPK4] | 1.97 ± 0.44 | 1.92 ± 0.36 | – | –
14 | REQADSCREQLDIMNDLSNRVWSI [TRIM14] | 2.23 ± 0.11 | 2.28 ± 0.46 | – | –
15 | DLEDPLGGLLSYDEGGITKQPPVT [FBF1] | 4.41 ± 0.28 | 4.35 ± 0.43 | – | –
16 | VFSYFLATDMISIFEPPVRNSGII [EFHC1] | 3.65 ± 0.91 | 3.14 ± 0.67 | – | –
17 | LVDHVGSKTFLCIGSSVMAASLVT [SLC2A12] | 3.06 ± 0.76 | 3.05 ± 0.57 | – | –
18 | VAMLGVFLVSAVAHEYIFCFVLGF [SOAT2] | 3.21 ± 0.36 | 3.14 ± 0.5 | – | –
19 | ISRKLGDMRNSATFKSFEDRVGTI [TPD52L2] | 2.98 ± 0.22 | 3.07 ± 0.24 | – | –
20 | TSGNPNGRYGSGYLLASTPESEL [SLC6A17] | – | – | 4.62 ± 0.37 | 4.58 ± 0.2
21 | SKKGLSFFAFEHSEEYQQAQHKFL [TCF25] | 2.85 ± 0.21 | 3 ± 0.15 | – | –
22 | IFRSYSRGAQGILLVYDITNRWSF [RAB40C] | 2.52 ± 0.7 | 2.61 ± 0.73 | – | –

Row | Sequence | protein stability index [1] | protein stability index [2] | protein stability index [3] | protein stability index [4]
23 | KMLSKAVDALKSDKKVRTIIIRSE [AUH] | 1.81 ± 0.26 | 2 ± 0.6 | – | –
24 | PLRNDVDKRGETTSASLLNAGLSH [SLC2A12] | 4.55 ± 0.32 | 4.66 ± 0.22 | – | –
25 | CPPLPAGVSFHIDSAELEPGSQTA [FBXO34] | 5.03 ± 0.4 | 5.09 ± 0.2 | – | –
26 | LTEQQEQLRGQLQDLDSRLRAGSS [RASAL3] | 5.08 ± 0.18 | 5.19 ± 0.23 | – | –
27 | AVVALTQDQPSEAATGGATLAQTI [HDAC6] | 4.27 ± 0.33 | 4.38 ± 0.24 | – | –
28 | SRLVKYPLLLKEILKHTPKEHPDV [NET1] | 2.71 ± 0.18 | 2.92 ± 0.32 | – | –
29 | FYQHLLLYIQSHYQLELQCCIDWT [SMG5] | 3.17 ± 0.36 | 3.02 ± 0.38 | – | –
30 | LMKHKSRKRRLFCTMEPEPVQPGM [TRIM35] | 3.51 ± 0.49 | 3.43 ± 0.17 | – | –
31 | LTKLLASKSKEEVSSLISEKTNGA [FEM1C] | 4.07 ± 0.22 | 4.38 ± 0.26 | – | –
32 | VDISVPPTTDGQKPNKLQCCQNL [RAB11B] | – | – | 4.77 ± 0.31 | 4.93 ± 0.091
33 | LAIKKQQHIDNITQIEDATEKLKA [TRIM14] | 4.41 ± 0.27 | 4.38 ± 0.21 | – | –
34 | DFLIRDSESSPSDFSVSLKASGKN [NCK2] | 4.25 ± 0.25 | 4.4 ± 0.18 | – | –
35 | MFPGVLLPLLESCSVRPDASVSSH [TCF25] | 2.62 ± 0.38 | 2.18 ± 0.2 | – | –
36 | TKILQERAVLGANDPEKNFLTTAI [NSDHL] | 3.53 ± 0.14 | 3.38 ± 0.13 | – | –
37 | LQSISWDPEDFEDAWKRPDALPGQ [TLE6] | 3.98 ± 0.29 | 3.87 ± 0.43 | – | –
38 | RLAQVKRKILVLDLDETLIHSHHD [CTDNEP1] | 2.41 ± 0.73 | 2.58 ± 0.36 | – | –
39 | QDSPLDLTVRKSQSEPSEQDGVLD [LCOR] | 5.42 ± 0.32 | 5.35 ± 0.37 | – | –
40 | WRYVSSLPQPLAAHAGAVHNGKIY [KLHL14] | 2.51 ± 0.26 | 2.73 ± 0.078 | – | –
41 | KEQAIWKHPQPAPAVTPDPWGVQG [PKD2L1] | 3.75 ± 0.22 | 4.07 ± 0.31 | – | –
42 | TFLPYTFSLMVTFPDVPLGIFLFC [TMEM175] | 2.49 ± 0.14 | 2.98 ± 0.8 | – | –
43 | LRALKLVITALKCHKYDRNIQVTG [ZER1] | 3.14 ± 0.42 | 3.16 ± 0.65 | – | –
44 | TSFIRGPNPSKVLQQLLVLQPEQQ [CDS1] | 3.37 ± 0.19 | 3.3 ± 0.095 | – | –

Row | Sequence | protein stability index [1] | protein stability index [2] | protein stability index [3] | protein stability index [4]
45 | NLESKSTIGVEFATRSIQVDGKTI [RAB11A] | 4.33 ± 0.19 | 4.27 ± 0.35 | – | –
46 | GKEPLDPDPSHSPSDKVGRADAHL [TOR1AIP2] | 5.07 ± 0.17 | 5.32 ± 0.057 | – | –
47 | EKSTVVEGGEVRFNGKGKKIRKPR [DLX1] | 4.77 ± 0.28 | 5.06 ± 0.33 | – | –
48 | TCECLEGFRLAEDGKRCRRKDVCK [MATN2] | 4.24 ± 0.25 | 4.83 ± 0.28 | – | –
49 | DDSSSESGSGNGSSTLNPSTSSST [NOL4L] | 5.57 ± 0.31 | 5.49 ± 0.2 | – | –
50 | MGCLGVAKEDGKADTKKRHTPRGH [SMOC2] | 5.15 ± 0.17 | 5 ± 0.12 | – | –
51 | PLCNFNIIESFTELARIVLLRHRM [RAB40A] | 2.6 ± 0.21 | 2.87 ± 0.79 | – | –
52 | MRNLKASLENSLREVEARYALQME [KRT18] | 3.22 ± 0.12 | 3.25 ± 0.38 | – | –
53 | LESRIRDVHELFLQMAVLVEKQAD [STX11] | 2.27 ± 0.35 | 2.37 ± 0.34 | – | –
54 | DFVNLMAYDFHGSWEKVTGHNSPL [CHIT1] | 1.9 ± 0.23 | 2.06 ± 0.19 | – | –
55 | CMVEIVQKYDPDKDEWHKVFDLPE [KLHL13] | 2.52 ± 0.27 | 2.59 ± 0.24 | – | –
56 | DGHRPEWTFYPRFSSNIHTYHVGK [SPATS1] | 2.96 ± 0.077 | 3.01 ± 0.21 | – | –
57 | QARAELTAQHQRRLAAIAQEKDQE [FBF1] | 5.43 ± 0.23 | 5.2 ± 0.49 | – | –
58 | DHSQRICEVWACNLDEEMKKIRQV [CNOT7] | 3.43 ± 0.2 | 3.7 ± 0.18 | – | –
59 | ELIGACEFMKDRLYFATLRNRPKS [CDC14A] | 2.1 ± 0.5 | 2.24 ± 0.19 | – | –
60 | TYLRLIVDHHGTAQLQALRQKEVD [INTS3] | 2.27 ± 0.2 | 2.35 ± 0.3 | – | –
61 | YGYVYFRQVRDKTLKRGYFQKSLV [DENND6A] | 2.56 ± 0.46 | 2.1 ± 0.16 | – | –
62 | GSVAVVEAECEKSSATTYFWYREA [SLC6A17] | 2.81 ± 0.48 | 2.62 ± 0.35 | – | –
63 | SIIHQMEKFSSSLHELSSRVEASH [FBF1] | 2.72 ± 0.21 | 2.96 ± 0.2 | – | –
64 | GAFGIVHLCLRKADQKLVIIKQIP [NEK8] | 2.55 ± 0.48 | 2.3 ± 0.33 | – | –
65 | HTKELEDKVIELHKSHRGMTPAEA [EPB41L3] | 5.2 ± 0.24 | 5.13 ± 0.16 | – | –
